In article PMC3458824, “Direct Observation of the Uptake of Outer Membrane Proteins by the Periplasmic Chaperone Skp” (PLoS ONE, 2012):

B3: Skp-K55C-Cy3 (natural protein, Escherichia coli, UniProt P0AEU7 21-161, looked up)
chain: ADKIAIVNMGSLFQQVAQKTGVSNTLENEFKGRASELQRMETDLQAKMKKLQSMCAGSDRTKLEKDVMAQRQTFAQKAQAFEQDRARRSNEERGKLVTRIQTAVKSVANSQDIDLVVDANAVAYNSSDVKDITADVLKQVK
modifications: Cy3 (Cy3-maleimide) on the introduced cysteine at 55
notes: Skp of Escherichia coli, each monomer 141 residues as printed; Extent of labeling greater than 90%; one dye on each of the three chains of the trimer; also called Cy3 labeled Skp mutant K55C; Skp-Cy3; source: E. coli BL21 (DE3), purified (Ni-NTA), labeled with Cy3-maleimide
B4: Skp-E82C-Cy3 (natural protein, Escherichia coli, UniProt P0AEU7 21-161, looked up)
chain: ADKIAIVNMGSLFQQVAQKTGVSNTLENEFKGRASELQRMETDLQAKMKKLQSMKAGSDRTKLEKDVMAQRQTFAQKAQAFCQDRARRSNEERGKLVTRIQTAVKSVANSQDIDLVVDANAVAYNSSDVKDITADVLKQVK
modifications: Cy3 (Cy3-maleimide) on the introduced cysteine at 82
notes: Skp of Escherichia coli, each monomer 141 residues as printed; Extent of labeling greater than 90%; one dye on each of the three chains of the trimer; also called Cy3 labeled Skp mutant E82C; Skp-Cy3; source: E. coli BL21 (DE3), purified (Ni-NTA), labeled with Cy3-maleimide
B5: OmpC-L139C-Cy5 (natural protein, Escherichia coli, UniProt P06996 22-367, looked up)
chain: AEVYNKDGNKLDLYGKVDGLHYFSDNKDVDGDQTYMRLGFKGETQVTDQLTGYGQWEYQIQGNSAENENNSWTRVAFAGLKFQDVGSFDYGRNYGVVYDVTSWTDVLPEFGGDTYGSDNFMQQRGNGFATYRNTDFFGCVDGLNFAVQYQGKNGNPSGEGFTSGVTNNGRDALRQNGDGVGGSITYDYEGFGIGGAISSSKRTDAQNTAAYIGNGDRAETYTGGLKYDANNIYLAAQYTQTYNATRVGSLGWANKAQNFEAVAQYQFDFGLRPSLAYLQSKGKNLGRGYDDEDILKYVDVGATYYFNKNMSTYVDYKINLLDDNQFTRDAGINTDNIVALGLVYQF
modifications: Cy5 (Cy5-maleimide) on the introduced cysteine at 139
notes: Outer membrane protein OmpC of Escherichia coli; 346 residues as printed; Extent of labeling greater than 90%; also called Cy5 labeled OmpC mutant L139C; source: E. coli BL21 (DE3), purified (Ni-NTA) in 8 M urea, unfolded, labeled with Cy5-maleimide
B6: OmpC-D290C-Cy5 (natural protein, Escherichia coli, UniProt P06996 22-367, looked up)
chain: AEVYNKDGNKLDLYGKVDGLHYFSDNKDVDGDQTYMRLGFKGETQVTDQLTGYGQWEYQIQGNSAENENNSWTRVAFAGLKFQDVGSFDYGRNYGVVYDVTSWTDVLPEFGGDTYGSDNFMQQRGNGFATYRNTDFFGLVDGLNFAVQYQGKNGNPSGEGFTSGVTNNGRDALRQNGDGVGGSITYDYEGFGIGGAISSSKRTDAQNTAAYIGNGDRAETYTGGLKYDANNIYLAAQYTQTYNATRVGSLGWANKAQNFEAVAQYQFDFGLRPSLAYLQSKGKNLGRGYCDEDILKYVDVGATYYFNKNMSTYVDYKINLLDDNQFTRDAGINTDNIVALGLVYQF
modifications: Cy5 (Cy5-maleimide) on the introduced cysteine at 290
notes: Outer membrane protein OmpC of Escherichia coli; 346 residues as printed; Extent of labeling greater than 90%; also called Cy5 labeled OmpC mutant D290C; source: E. coli BL21 (DE3), purified (Ni-NTA) in 8 M urea, unfolded, labeled with Cy5-maleimide

What was measured:
[1] = target: Skp-D128C (Escherichia coli) (UniProt P0AEU7); test: fluorescence correlation spectroscopy (FCS); Cy3 labeled OmpC in 8 M urea diluted dropwise into 50 mM PBS pH 7.0, 100 mM NaCl, 0.01% Tween 20 with 0.2 µM reduced Skp; molecular weight of the complex from the diffusion time with free Cy3 as reference
[2] = target: Skp-E82C (Escherichia coli) (UniProt P0AEU7); test: as above
[3] = target: Skp-K55C (Escherichia coli) (UniProt P0AEU7); test: as above
Skp-K55C-Cy3 = target: B3; test: stopped-flow fluorescence (Cy3 self-quenching); OMP in 8 M urea mixed 1:20 with Cy3 labeled Skp mutant; both 0.03 µM final; 50 mM PBS pH 7.0, 100 mM NaCl, 0.01% Tween 20, 25°C; traces fitted to two or three exponentials; settings: both partners purified
Skp-E82C-Cy3 = target: B4; test: as above; settings: both partners purified
Skp-D128C-Cy3 [4] = target: T1, Skp-D128C-Cy3 (Escherichia coli, UniProt P0AEU7 21-161, D128C, Cy3 (Cy3-maleimide) on the introduced cysteine at 128); test: as above; settings: both partners purified
T1 construct: Skp of Escherichia coli, each monomer 141 residues as printed; Extent of labeling greater than 90%; one dye on each of the three chains of the trimer; also called Cy3 labeled Skp mutant D128C; Skp-Cy3; source: E. coli BL21 (DE3), purified (Ni-NTA), labeled with Cy3-maleimide
T1 sequence (looked up): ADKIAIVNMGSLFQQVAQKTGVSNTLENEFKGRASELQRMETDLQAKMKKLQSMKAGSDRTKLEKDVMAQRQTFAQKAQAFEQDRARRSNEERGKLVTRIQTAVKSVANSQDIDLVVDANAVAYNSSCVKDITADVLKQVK

wild-type Skp = target: T2, wild-type Skp (Escherichia coli, UniProt P0AEU7 21-161); test: cell-based or functional assay
T2 sequence (looked up): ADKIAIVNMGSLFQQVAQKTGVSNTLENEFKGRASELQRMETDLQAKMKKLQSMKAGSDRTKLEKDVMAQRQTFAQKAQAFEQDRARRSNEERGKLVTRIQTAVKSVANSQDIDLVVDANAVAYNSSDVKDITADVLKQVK

OmpC-L139C-Cy5 = target: B5; test: FRET or BRET; stopped-flow FRET; Cy5 labeled OmpC mutant in 8 M urea mixed 1:20 with Cy3 labeled Skp mutant; both 0.03 µM final; 50 mM PBS pH 7.0, 100 mM NaCl, 0.01% Tween 20, 25°C; Cy5 emission, fitted to three exponentials; settings: both partners purified
OmpC-D290C-Cy5 = target: B6; test: as above; settings: both partners purified
Skp-D128C-Cy3 [5] = target: T1, Skp-D128C-Cy3; test: as above; settings: both partners purified

Cy3 labeled OmpC (from UniProt P06996 22-367) (natural protein)
stoichiometry N [1]: 1 OmpC:Skp
stoichiometry N [2]: 1 OmpC:Skp
stoichiometry N [3]: 1 OmpC:Skp

B1: transmembrane domain of OmpA (domain or fragment, Escherichia coli)
chain: APKDNTWYTGAKLGWSQYHDTGFINNNGPTHENQLGAGAFGGYQVNPYVGFEMGYDWLGRMPYKGSVENGAYKAQGVQLTAKLGYPITDDLDIYTRLGGMVWRADTKSNVYGKNHDTGVSPVFAGGVEYAITPEIATRLEYQWTNNIGDAHTIGTRPDNGMLSLGVSYRFGQGEAA
notes: Transmembrane beta-barrel domain of outer membrane protein OmpA of Escherichia coli; PDB 2GE4 is named as the structure of this domain; also called OmpA-TMD; source: E. coli BL21 (DE3), purified (Ni-NTA) in 8 M urea, unfolded
time constant τ1 of the first phase (Skp-K55C-Cy3): 38.6 ± 2.7 ms
time constant τ1 of the first phase (Skp-E82C-Cy3): 61.7 ± 4.2 ms
time constant τ1 of the first phase (Skp-D128C-Cy3 [4]): 105 ± 7.3 ms

B2: OmpC (natural protein, Escherichia coli, UniProt P06996 22-367, looked up)
chain: AEVYNKDGNKLDLYGKVDGLHYFSDNKDVDGDQTYMRLGFKGETQVTDQLTGYGQWEYQIQGNSAENENNSWTRVAFAGLKFQDVGSFDYGRNYGVVYDVTSWTDVLPEFGGDTYGSDNFMQQRGNGFATYRNTDFFGLVDGLNFAVQYQGKNGNPSGEGFTSGVTNNGRDALRQNGDGVGGSITYDYEGFGIGGAISSSKRTDAQNTAAYIGNGDRAETYTGGLKYDANNIYLAAQYTQTYNATRVGSLGWANKAQNFEAVAQYQFDFGLRPSLAYLQSKGKNLGRGYDDEDILKYVDVGATYYFNKNMSTYVDYKINLLDDNQFTRDAGINTDNIVALGLVYQF
notes: Outer membrane protein OmpC of Escherichia coli; 346 residues as printed; Kept unfolded in 8 M urea and diluted into the Skp solution (final urea 0.38 M in stopped-flow); the printed 346 residues fit the mature protein; also called wild-type OmpC; urea-denatured OmpC; source: E. coli BL21 (DE3), purified (Ni-NTA) in 8 M urea, unfolded
aggregation of urea-denatured OmpC (1.5 µM) by light scatter at 380 nm, 25°C, with 0, 1.5, 4.5 and 7.5 µM wild-type Skp (wild-type Skp): 5 fold molar excess
time constant τ1 of the first phase (Skp-K55C-Cy3): 82.6 ± 5.5 ms
time constant τ1 of the first phase (Skp-E82C-Cy3): 125 ± 7.8 ms
time constant τ1 of the first phase (Skp-D128C-Cy3 [4]): 188 ± 12 ms

B3
binding result (OmpC-L139C-Cy5): binds
binding result (OmpC-D290C-Cy5): binds

B4
binding result (OmpC-L139C-Cy5): binds
binding result (OmpC-D290C-Cy5): binds

B5
time constant τ1 of the fast phase (Skp-D128C-Cy3 [5]): 208 ± 14 ms

B6
time constant τ1 of the fast phase (Skp-D128C-Cy3 [5]): 285 ± 19 ms

B7: OmpF (natural protein, Escherichia coli)
chain: AEIYNKDGNKVDLYGKAVGLHYFSKGNGENSYGGNGDMTYARLGFKGETQINSDLTGYGQWEYNFQGNNSEGADAQTGNKTRLAFAGLKYADVGSFDYGRNYGVVYDALGYTDMLPEFGGDTAYSDDFFVGRVGGVATYRNSNFFGLVDGLNFAVQYLGKNERDTARRSNGDGVGGSISYEYEGFGIVGAYGAADRTNLQEAQPLGNGKKAEQWATGLKYDANNIYLAANYGETRNATPITNKFTNTSGFANKTQDVLLVAQYQFDFGLRPSIAYTKSKAKDVEGIGDVDLVNYFEVGATYYFNKNMSTYVDYIINQIDSDNKLGVGSDDTVAVGIVYQF
notes: Outer membrane protein OmpF of Escherichia coli; probably the mature protein as for OmpC (surmise); also called wild-type OmpF; source: E. coli BL21 (DE3), purified (Ni-NTA) in 8 M urea, unfolded
time constant τ1 of the first phase (Skp-K55C-Cy3): 61.3 ± 4.9 ms
time constant τ1 of the first phase (Skp-E82C-Cy3): 182 ± 11 ms
time constant τ1 of the first phase (Skp-D128C-Cy3 [4]): 270 ± 16 ms
